Source: PMC5505151, “A proteomic analysis of LRRK2 binding partners reveals interactions with multiple signaling components of the WNT/PCP pathway” (Molecular Neurodegeneration, 2017)

Target: LRRK2 (wild type, transiently overexpressed; tagged construct not told for the experiment) (UniProt Q5S007 1-2527)
Test: cell-based or functional assay

Chain of LRRK2 (wild type, transiently overexpressed; tagged construct not told for the experiment) (Q5S007 whole entry): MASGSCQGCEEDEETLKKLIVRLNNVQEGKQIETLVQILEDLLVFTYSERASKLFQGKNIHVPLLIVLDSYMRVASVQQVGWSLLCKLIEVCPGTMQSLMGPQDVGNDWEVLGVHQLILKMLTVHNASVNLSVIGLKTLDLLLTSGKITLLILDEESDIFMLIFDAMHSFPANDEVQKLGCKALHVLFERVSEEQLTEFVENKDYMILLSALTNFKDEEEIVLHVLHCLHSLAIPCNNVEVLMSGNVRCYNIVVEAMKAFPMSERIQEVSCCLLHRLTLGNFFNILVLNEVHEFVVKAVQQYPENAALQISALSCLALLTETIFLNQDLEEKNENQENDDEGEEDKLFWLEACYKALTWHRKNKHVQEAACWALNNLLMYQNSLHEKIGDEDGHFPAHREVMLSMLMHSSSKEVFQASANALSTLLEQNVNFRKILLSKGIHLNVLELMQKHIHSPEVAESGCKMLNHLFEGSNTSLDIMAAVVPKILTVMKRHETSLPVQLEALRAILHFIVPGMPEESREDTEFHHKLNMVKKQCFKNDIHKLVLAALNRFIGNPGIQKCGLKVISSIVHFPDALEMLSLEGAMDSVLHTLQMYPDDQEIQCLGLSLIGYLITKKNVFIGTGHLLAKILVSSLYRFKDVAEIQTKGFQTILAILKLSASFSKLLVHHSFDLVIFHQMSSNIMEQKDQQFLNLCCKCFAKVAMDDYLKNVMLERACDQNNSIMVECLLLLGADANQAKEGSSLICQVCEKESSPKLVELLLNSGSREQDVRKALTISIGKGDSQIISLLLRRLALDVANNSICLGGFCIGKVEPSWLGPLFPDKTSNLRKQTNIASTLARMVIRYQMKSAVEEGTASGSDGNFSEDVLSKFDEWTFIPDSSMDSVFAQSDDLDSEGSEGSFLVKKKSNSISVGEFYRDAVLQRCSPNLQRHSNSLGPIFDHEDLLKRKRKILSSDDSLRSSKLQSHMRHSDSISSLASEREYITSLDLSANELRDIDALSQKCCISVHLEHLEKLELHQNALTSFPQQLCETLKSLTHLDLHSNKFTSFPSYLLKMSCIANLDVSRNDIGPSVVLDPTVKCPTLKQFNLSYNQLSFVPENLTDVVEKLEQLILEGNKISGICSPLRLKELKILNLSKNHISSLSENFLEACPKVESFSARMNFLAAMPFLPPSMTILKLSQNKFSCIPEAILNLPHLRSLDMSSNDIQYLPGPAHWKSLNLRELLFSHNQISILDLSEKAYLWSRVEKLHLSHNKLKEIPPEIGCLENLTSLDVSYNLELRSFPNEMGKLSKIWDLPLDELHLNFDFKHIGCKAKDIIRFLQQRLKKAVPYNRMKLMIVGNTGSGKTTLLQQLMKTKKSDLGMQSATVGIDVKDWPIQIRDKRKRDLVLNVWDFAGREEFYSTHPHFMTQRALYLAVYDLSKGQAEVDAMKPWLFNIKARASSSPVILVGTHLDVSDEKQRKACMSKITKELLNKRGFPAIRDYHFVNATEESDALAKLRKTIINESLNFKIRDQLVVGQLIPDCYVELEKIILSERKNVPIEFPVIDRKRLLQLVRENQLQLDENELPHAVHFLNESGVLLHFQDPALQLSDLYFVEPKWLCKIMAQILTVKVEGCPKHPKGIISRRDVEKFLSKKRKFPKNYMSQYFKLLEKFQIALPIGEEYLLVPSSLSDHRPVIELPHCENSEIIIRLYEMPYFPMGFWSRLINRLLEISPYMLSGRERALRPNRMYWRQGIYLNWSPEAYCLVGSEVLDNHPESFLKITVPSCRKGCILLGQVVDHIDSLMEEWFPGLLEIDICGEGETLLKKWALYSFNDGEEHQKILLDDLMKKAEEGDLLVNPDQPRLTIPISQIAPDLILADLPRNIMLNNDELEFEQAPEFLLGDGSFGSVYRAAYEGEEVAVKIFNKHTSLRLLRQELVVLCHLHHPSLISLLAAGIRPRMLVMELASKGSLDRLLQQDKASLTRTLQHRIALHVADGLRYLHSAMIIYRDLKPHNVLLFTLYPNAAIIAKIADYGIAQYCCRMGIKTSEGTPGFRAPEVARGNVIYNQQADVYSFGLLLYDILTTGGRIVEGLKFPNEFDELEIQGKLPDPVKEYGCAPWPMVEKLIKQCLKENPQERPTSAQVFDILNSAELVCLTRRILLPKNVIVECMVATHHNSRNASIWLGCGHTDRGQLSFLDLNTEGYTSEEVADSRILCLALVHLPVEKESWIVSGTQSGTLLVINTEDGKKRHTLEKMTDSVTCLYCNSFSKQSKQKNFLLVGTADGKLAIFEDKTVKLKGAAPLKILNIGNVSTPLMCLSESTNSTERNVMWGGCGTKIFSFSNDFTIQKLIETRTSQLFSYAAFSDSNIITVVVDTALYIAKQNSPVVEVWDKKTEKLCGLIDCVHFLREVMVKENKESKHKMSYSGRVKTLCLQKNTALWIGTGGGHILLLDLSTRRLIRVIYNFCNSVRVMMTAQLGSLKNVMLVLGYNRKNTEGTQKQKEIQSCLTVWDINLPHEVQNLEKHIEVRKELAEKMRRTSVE

B1: Prickle1-ECFP (natural protein, UniProt Q3U5C7 1-832, looked up)
chain: MPLEMEPKMSKLVFGCQRSSTSDDDSGCALEEYAWVPPGLRPEQIQLYFACLPEEKVPYVNSPGEKHRIKQLLYQLPPHDNEVRYCQSLSEEEKKELQVFSAQRKKEALGRGTIKLLSRAVMHAVCEQCGLQMNGGEVAVFASRAGPGVCWHPSCFVCFTCNELLVDLIYFYQDGKIHCGRHHAELLKPRCSACDEIIFADECTEAEGRHWHMKHFCCLECETVLGGQRYIMKDGRPFCCGCFESLYAEYCETCGEHIGVDHAQMTYDGQHWHATEACFSCAQCKASLLGCPFLPKQGQIYCSKTCSLGEDIHASDSSDSAFQSARSRDSRRSVRMGRSSRSADQCRQSLLLSPALNYKFPGLSGNADDTLSRKLDDVSLASRQGAGFANEEFWKARVEQEASEDPEEWAEHEDYMTQLLLKFGDKNLFQQQSSEVDPRASEHWIPDNMVTNKPEVKPNHQGLASKKYQSDMYWAQSQDGLGDSAYGSHPGPASSRRLQELDLDHGAAGYTHDQSQWYEDSLECLSDLKPEQSIRDSMDSLALSNITGASVDGESKPRPSLYSLQNFEEIEAEDCEKMSNMGTLNSSMLHRSAESLQSLNSGLCPEKILPEEKPAHLPVLRRSKSQSRPQQVKFSDDVIDNGSYDIEIRQPPMSERTRRRAYHFEERGSRPHHHRHRRSRKSRSDNALNLVTERKYSAKDRLRLYTPDNYEKFIQNKSARELQAYMQNANLYSQYAHATSDYALQNPGMNRFLGLCGEDDDSWCSSSTSSSDSEEEGYFLGQPIPQPRPQRFTYYTDDLSSPASALPTPQFTQRTTKSKKKKGHKGKNCIIS
- TOPFlash (WNT/β-catenin reporter) in HEK293T cells expressing DVL2, LRRK2 and PRICKLE1, fold of control (DVL2 with LRRK2 without PRICKLE1: ~130 fold): ~80 fold
